Consider one molecule from doi:10.1101/509299 (bioRxiv, 2019).

For the test, the target named is integrin αIIbβ3 on K562 cells stably expressing recombinant αIIbβ3 (αIIbβ3-K562) (UniProt P08514 32-1039; P05106 27-788). As to the kind of experiment: flow cytometry on cells. Background: Flow cytometry measures light scatter and fluorescence of single cells or particles in a stream.

As for RGDWPC (homoarginine (Har) at position 2) [Eptifibatide], the IC50 was found to be 73.2 nM.

As a reminder, the IC50 is the concentration that gives 50% inhibition.
